Data taken from patent publication US20150051136A1.

Tests used:
S100B [1] = assay: cell-based or functional assay
[2] = biological target: HMGB1 (high mobility group box 1); assay: cell-based or functional assay
[3] = biological target: HMGB1 (high mobility group box 1); assay: HMGB1 ELISA (as in Liu et al. 2009)
S100B [4] = assay: BIAcore SPR, sRAGE amine-coupled to CM5 chip, S100B as analyte, steady state model
[5] = biological target: HMGB1 (high mobility group box 1); assay: BIAcore SPR, sRAGE amine-coupled to CM5 chip, HMGB1 as analyte, 1:1 Langmuir model

HMGB1 (high mobility group box 1), sequence (P09429 whole entry): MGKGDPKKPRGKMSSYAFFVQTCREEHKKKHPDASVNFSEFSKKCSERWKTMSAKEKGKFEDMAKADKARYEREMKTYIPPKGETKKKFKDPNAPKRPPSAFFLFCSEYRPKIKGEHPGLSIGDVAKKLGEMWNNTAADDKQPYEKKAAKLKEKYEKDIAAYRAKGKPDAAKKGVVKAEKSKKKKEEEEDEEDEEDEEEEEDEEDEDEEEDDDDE
sRAGE^CHO(desialylated), sequence (Q15109 other isoform, or with tags, fused parts or gaps): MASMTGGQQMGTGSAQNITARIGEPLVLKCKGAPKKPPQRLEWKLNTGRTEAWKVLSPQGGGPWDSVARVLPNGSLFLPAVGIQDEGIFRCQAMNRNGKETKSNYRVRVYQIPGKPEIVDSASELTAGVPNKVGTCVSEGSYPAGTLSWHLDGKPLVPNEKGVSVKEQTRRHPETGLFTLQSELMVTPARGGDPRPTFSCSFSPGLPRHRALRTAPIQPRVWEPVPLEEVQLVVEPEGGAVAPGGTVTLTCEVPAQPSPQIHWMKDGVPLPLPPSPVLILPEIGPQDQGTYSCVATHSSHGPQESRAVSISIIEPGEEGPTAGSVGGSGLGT
sRAGE^CHO (human T7-Gly-Ser-RAGE (23-340) polypeptide produced in CHO-CD14 cells), sequence (Q15109 other isoform, or with tags, fused parts or gaps): as above
sRAGE^sf9 (human T7-sRAGE produced in baculovirus-infected sf9 insect cells), sequence (Q15109 23-340, tags or fused parts left off): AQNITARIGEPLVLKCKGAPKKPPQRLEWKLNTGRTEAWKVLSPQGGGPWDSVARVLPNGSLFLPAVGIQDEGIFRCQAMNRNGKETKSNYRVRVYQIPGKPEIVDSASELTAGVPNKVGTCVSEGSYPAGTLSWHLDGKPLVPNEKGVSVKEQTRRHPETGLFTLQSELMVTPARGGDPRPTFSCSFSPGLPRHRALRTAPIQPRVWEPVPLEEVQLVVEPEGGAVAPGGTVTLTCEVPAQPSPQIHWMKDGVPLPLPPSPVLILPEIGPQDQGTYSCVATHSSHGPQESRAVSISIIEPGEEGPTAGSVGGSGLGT
S100B, sequence (D3DSN6 whole entry): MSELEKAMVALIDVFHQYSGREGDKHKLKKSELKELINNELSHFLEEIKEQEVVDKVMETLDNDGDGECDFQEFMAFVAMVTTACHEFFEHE

Substance “sRAGE^CHO (human T7-Gly-Ser-RAGE (23-340) polypeptide produced in CHO-CD14 cells) (from UniProt Q15109 23-340) (receptor)” has an inhibition of s100B-induced NF-κB activity (luciferase reporter, HEK293-RAGE cells; 100 nM ligand, 100 nM sRAGE) (S100B [1]) of 40.2%, an inhibition of HMGB1-induced NF-κB activity (luciferase reporter, HEK293-RAGE cells; 100 nM ligand, 100 nM sRAGE) [2] of 58.6% and a Kd [3] of 0.0495 µM. For the same substance, the Kd (S100B [4]) was 0.0905 µM and the Kd [5] was 0.0133 µM.

Substance “sRAGE^CHO(N25T/N81T) (from UniProt Q15109 26-340) (receptor)” has an inhibition of HMGB1-induced NF-κB activity (luciferase reporter, HEK293-RAGE cells; 100 nM ligand, 100 nM sRAGE) [2] of 0.3%, a Kd [3] of 0.521 µM and a fold of the dissociation constant (Kd) against wild-type sRAGE [3] of 10 fold.

With “sRAGE^CHO(desialylated) (from UniProt Q15109 23-340) (receptor)” the inhibition of s100B-induced NF-κB activity (luciferase reporter, HEK293-RAGE cells; 100 nM ligand, 100 nM sRAGE) (S100B [1]) was 18%, the inhibition of HMGB1-induced NF-κB activity (luciferase reporter, HEK293-RAGE cells; 100 nM ligand, 100 nM sRAGE) [2] was 25.8% and the Kd (S100B [4]) was 0.0253 µM.

“sRAGE^sf9 (human T7-sRAGE produced in baculovirus-infected sf9 insect cells) (from UniProt Q15109 23-340) (receptor)” was tested, and the inhibition of s100B-induced NF-κB activity (luciferase reporter, HEK293-RAGE cells; 100 nM ligand, 100 nM sRAGE) (S100B [1]) was 20.4%, the inhibition of HMGB1-induced NF-κB activity (luciferase reporter, HEK293-RAGE cells; 100 nM ligand, 100 nM sRAGE) [2] was 19.7% and the Kd (S100B [4]) was 0.032 µM.
